From the DeepSol protein solubility set come the findings set out here.

The nature of this data set: soluble on expression in E. coli; label from the status in PepcDB or PDB records.
On to “MGSYSSDDVEVIREAGRAQGLATILAIGTATPPNCVAQADYADYYFRVTKSEHMVDLKEKFKRICEKTAIKKRYLALTEDYLQENPTMCEFMAPSLNARQDLVVTGVPMLGKEAAVKAIDEWGLPKSKITHLIFCTTAGVDMPGADYQLVKLLGLSPSVKRYMLYQQGCAAGGTVLRLAKDLAENNKGSRVLIVCSEITAILFHGPNENHLDSLVAQALFGDGAAALIVGSGPHLAVERPIFEIVSTDQTILPDTEKAMKLHLREGGLTFQLHRDVPLMVAKNIENAAEKALSPLGITDWNSVFWMVHPGGRAILDQVERKLNLKEDKLRASRHVLSEYGNLISACVLFIIDEVRKRSMAEGKSTTGEGLDCGVLFGFGPGMTVETVVLRSVRVTAAVANGN”, for which the “soluble on expression in E. coli” value is “soluble”.

Consider “MSLKSISLLLLSLLMITPSCQKPKEVTNEYNIVPQPNQLVPKEGRFELSNKVRLVVPSDAPEVKKVADGFAEQLKQTAGISLTEAESVDGKPAISFVLQEGMPKEGYKLSVTPTLITVTASQPNGFFYGVQTIYQLLPPAVYGKELKKKADWSVPAVEIEDAPRFVHRGLMLDVCRHYAPIEYIYKFIDLLAMNKMNVFHWHLTDDQGWRIEIKKYPKLTEIGSKREKTLVDYYYVNYPQVFDGIEHGGYYTQEQIKEVVAYAASKYINVIPEIEMPGHALAALAAYPELSCDSTQTYKVSPTWGVFEQVFCPSETTFKFFEGVMDEVVELFPSEYIHIGGDECPKTAWKNSTFCQQLIRQLGLKDDATPSKVDGVKHSKEDKLQSYFVTRMEKYLNGKGRNIIGWDEILEGGLAPNATVLSWRGVEGGLNAAKAGHNAIMAPMPYAYLDFYQEDPEIAPTTIGGYTTLKKTYSYNPVPDNADELVKKHIIGMQGNLWREYMKTSDRVDYQAFPRAMAIAETGWTLDANKNWKSFCERMVTEFERLEVMDTKPCLNFFDVNINTHADENGPLMVLLETFYPNAEIRYTTDGSEPTYGSTLYEQPFVLEGNIDLKAAAFKDGKMLGKVTNKPLYGNLLAGKEGHHHHHH”, for which the “soluble on expression in E. coli” value is reported as “soluble”.

Regarding “MAHHHHHHMSGVNAWGRMHTPAKQSQFTLDMFEEWKAKQNEDIAQRGADRDPAVEEEHNRYMLRQNLNAYVCYKELDRYTTCLEDKRLIRRRDDEDGARGGGTGVSLASSFEINTRNKVNEKLCRATHNTYVSCMSSQKNQEVVLQSASLEPHCTERRAKLFRCLRENQVSEAQTNTPQCTDTYRSLLRCGLNHLWNHYWREITKFSDTDEFHLYELSRDDNKKQAYLRALTTSEAQRQSHLREARDTMLGYYLDPKAAQKGDS”, the “soluble on expression in E. coli” value was “not soluble”.

For the sequence “MAHHHHHHMSSATPPLPADSVTASAALRFSVDFDPSRADSKPSVLLLTQNVGGIEAALGTDAGLGETSPECPHSPLPENGGDTSAAFASVPKDFRGPSYIHVPDDIDSELGVSPVVRQQVAEFLADLRQWLHRLSYMSAAVRAAEASATASSAAPASVAGGAPSPPPSPTPCGAAANTEAYMRSYTPSVRPPLIDMVVLHFQEIGGKYKNKHFNEYFKEQIRTSLLPEAGWTSGLLMDERESGDTLSSSSYQRHRATSTVQALRRTSFEGSSTSNNNGNANGHVGDAHRLSDANSNDTDLTAELDADADAYFTAIGSIVFLSPRFMGIASCLSVPHRTYIPIVDDPLTYAGEAGRLFHSGKFAEAGRSRKGFLLLSLRLGTVQFNVCNVHLFNDDDNRVALKSSPSLYTGRRTRAITEAIAECSAVVDLSEPLFIFGDYNVRMDGKSFTEWVEEKMQMTVRAERKRLRCPEQFWELFTNPATQQELRTRFDIEPQHLMDEVALLSSVELAEMPIQFAPTYSRVAYRTRTGATTTSAGADAAALRDVAATPDAQQQIPTLKDLAGRADAIRAEEQEQTEAIRARPSVSTLLAPLASPLASVPLTHVAASPYRDNFCHDRLPAWCDRVMFNVAGLEWISGDRSRTAPPQPQAASSVSGSAASGAGGLKGRQRSGQGCWYAYAAIDFIHMDHDGVFMLF”, the “soluble on expression in E. coli” value is listed as “not soluble”.

Turning to “VSAHVATLHPEPPFALCGPRGTLIARGVRTRYCDVRAAQAALRSGTAPILLGALPFDVSRPAALMVPDGVLRARKLPDWPTGPLPKVRVAAALPPPADYLTRIGRARDLLAAFDGPLHKVVLARAVQLTADAPLDARVLLRRLVVADPTAYGYLVDLTSAGNDDTGAALVGASPELLVARSGNRVMCKPFAGSAPRAADPKLDAANAAALASSAKNRHEHQLVVDTMRVALEPLCEDLTIPAQPQLNRTAAVWHLCTAITGRLRNISTTAIDLALALHPTPAVGGVPTKAATELIAELEGDRGFYAGAVGWCDGRGDGHWVVSIRCAQLSADRRAALAHAGGGIVAESDPDDELEETTTKFATILTALGVEQ”, the “soluble on expression in E. coli” value is on record as “not soluble”.

Turning to “MNVLFLSISLGSGHIRAAEALQKFVVQKYPKSKTLIVDTFKYINPLIHTVVVDGYLNIVKYVPEIYGGLYRMSEHIKNIDRMSRGFSNLLTPKIHRLIQSFKPSIIVCTHPFPLQMIAHLKKHYNLDVPSIAIVTDFVNHPFWFQNNIEAYIVAHDYIKRDMIECGISEDRIFTYGLPVAPEFLKSIPKEQARKELSLENTLTVLLMGGSLGIGDIENTFKSFAKCKRDIQIIAVAGKNTALKKRLDSLAASFPMPVKIFGYTDSIPMLMDASDFIVTKPGAMTISEALVKRLPALIISPIPGQEERNEQFLVNSGTAVRIYKNTKIDSVLCQVYDNKLRYKQMKEIAGNLANPDSGRNILSLIEKLVNDNEKGLFKYSFNAF”, the “soluble on expression in E. coli” value is listed as “soluble”.

Take “AMAISDPEETLMDSTTATAELGWMVHPPSGWEEVSGYDENMNTIRTYQVCNVFESSQNNWLRTKFIRRRGAHRIHVEMKFSVRDCSSIPSVPGSCKETFNLYYYEADFDLATKTFPNWMENPWVKVDTIAADESISQVDLGGRVMKINTEVRSFGPVSRNGFYLAFQDYGGCMSLIAVRVFYRKCPR”: the “soluble on expression in E. coli” value is “soluble”.

On to “MGHHHHHHSHMIGPIIDKLEKVAVRGGDKKLKPEYDIMCKVKSWVIDQKKPVRFYHDWNDKEIEVLNKHLFLTSKPMVYLVNLSEKDYIRKKNKWLIKIKEWVDKYDPGALVIPFSGALELKLQELSAEERQKYLEANMTQSALPKIIKAGFAALQLEYFFTAGPDEVRAWTIRKGTKAPQAAGKIHTDFEKGFIMAEVMKYEDFKEEGSENAVKAAGKYRQQGRNYIVEDGDIIFFKFNTPRQPKKK”, for which the “soluble on expression in E. coli” value is given as “not soluble”.

Take “MGSDKIHHHHHHMPSIRVVNLKKYFGKVKAVDGVSFEVKDGEFVALLGPSGCGKTTTLLMLAGIYKPTSGEIYFDDVLVNDIPPKYREVGMVFQNYALYPHMTVFENIAFPLRARRISKDEVEKRVVEIARKLLIDNLLDRKPTQLSGGQQQRVALARALVKQPKVLLFDEPLSNLDANLRMIMRAEIKHLQQELGITSVYVTHDQAEAMTMASRIAVFNQGKLVQYGTPDEVYDSPKNMFVASFIGNPPTNFLRDFSVSVENKQTILKRDDVIIKLPEPVDVKLKEVVVGIRPEHCRISRERVENSIPGVVYVVEPLGRDIIVNVKTEKGEIIKVFGDTGKAPQPGENVFLVPDLRKIHLFNPETEETIL”: the “soluble on expression in E. coli” value is reported as “not soluble”.

In the case of “SEPIAAAPQIPVSEWDNPGIKLQVAPIPRICGMPEVQDMKLITPVRRSARIERTVARYPEMLQEHDVVVASLNELLEVDKTECFIFRENEALPVTLGFEVLES”, the “soluble on expression in E. coli” value is “not soluble”.

With “GPGSMASSSTADDHSAVAGIVASSASVCGSRDAAASPPTALPKLGSAKQQRTERAFLFDRYPSRKIALRLAYHGHVHDGLAKQKETDNTVEGLVCDALRRLRLIPEDGPHNFGRCGRTDKGVSALGNAFSLTARASCTGDAEPQLPPLDYCSMLNNVLPSTIRIVGCALVDDAFDARFSCVHRTYRYYFFHRGLNLAAMQEAAAFFLGTHNFRNFCKMDVVNVSNFVRTVFSVGLHPSEALPELISYLEIRANSFLYHQIRCIMEVLFLVGRGLEVPSVVQTLLELGDRKPTYPLADGTPLILWDCGFDNVQWQMSHCAFHAMEQELQDIGTALLIRATSATAMRSQLFRWYTGTADVFRKDTSEKDASGEDRSRAVVRRDPELRRLDGWSITGCDWTDPGTAGQMKARKRDLLYYLRTEAKNGQPLPTTTSCEEKTSQTAETIASGALAPVNYVPLLQRETERTYEEEVRELSGKKRARYEVNEAKKAAAAAAHKEVVSED”, the “soluble on expression in E. coli” value is “not soluble”.

With “MNNTIETILAHRSIRKFTAVPITDEQRQTIIQAGLAASSSSMLQVVSIVRVTDSEKRNELAQFAGNQAYVESAAEFLVFCIDYQRHATINPDVQADFTELTLIGAVDSGIMAQNCLLAAESMGLGGVYIGGLRNSAAQVDELLGLPENSAVLFGMCLGHPDQNPEVKPRLPAHVVVHENQYQELNLDDIQSYDQTMQAYYASRTSNQKLSTWSQEVTGKLAGESRPHILPYLNSKGLAKR”, the “soluble on expression in E. coli” value was “soluble”.

In the case of “MGHHHHHHSHMADVEDGEETCALASHSGSSGSKSGGDKMFSLKKWNAVAMWSWDVECDTCAICRVQVMDACLRCQAENKQEDCVVVWGECNHSFHNCCMSLWVKQNNRCPLCQQDWVVQRIGK”, the “soluble on expression in E. coli” value is listed as “not soluble”.

Consider “SGKLHSKPAAVCKRRESPEGDSFAVSAAWARKGIEEWIGRQRCPGGVSGPRQLRLAGTIGRSTRELVGDVLRDTLSEEEEDDFRLEVALPPEKTDGLGSGDEKKMERVSEPCPGSKKQLKFEELQCDVSMEEDSRQEWTFTLYDFDNNGKVTREDITSLLHTIYEVVDSSVNHSPTSSKMLRVKLTVAPDGSQSKRSVLVNQADLQSARPRAETKPTEDLRSWEKKQRAPLRFQGDSRLEQSGCYHHCVDENIERRNHYLDLAGIENYTSQFGPGSPSVAQKSELPPRTSNPTRSRSHEPEAIHIPHRKPQGVDPASFHFLDTPIAKVSELQQRLRGTQDGSKHFVRSPKAQGKSVGVGHVARGARNKPPLGPAIPAVSPSAHLAASPALLPSLAPLGHKKHKHRAKESQQGCRGLQAPLASGGPVLGREHLRELPALVVYESQAGQPVQRHEHHHHHEHHHHYHHFYQT”, for which the “soluble on expression in E. coli” value is “not soluble”.

On to “MASEVRIKLLLECTECKRRNYATEKNKRNTPNKLELRKYCPWCRKHTVHREVKI”, for which the “soluble on expression in E. coli” value was “soluble”.

For “MDGCYGISDSVGMITQPYRLYVERTDCKKNMARYYAMEITTTLFGDACLTRSWGRIGKRGQSKMHHFEREEEAVDLFLTLTRQKRSRGYRPATGRDRGLEHHHHHH”, the “soluble on expression in E. coli” value was “not soluble”.

With “MSLLKQKILNRESGIITYGITPPKKNNTEEKIKEISQKHIERISGLDIDGLVIYDLQDEKERVSEERPFPFIETIDPQIYSENYLKDLKIPKIIYRCVGKYTPDEFRRLTRPVSGQDAFSVFVGAASRNQSVLLKLSDAYKIRQDVNPDLLLGGVAIPERHMKNTDEHLRIIDKINKGCKYFITQAVYNVEAAKDFLSDYYYYSKNNNLKMVPIIFTLTPCGSTKTLEFMKWLGISIPRWLENDLMNCEDILNKSVSLSKSIFNELMEFCLEKGIPIGCNIESVSVRKVEIEASIALAKDIKYIMKGEGHHHHHH”, the “soluble on expression in E. coli” value is reported as “soluble”.

Regarding “MGSDKIHHHHHHMPLDLDTALSSHQPLSLNERKLLDILRRRGAITRATVSAEMDLAQQSVHRLIEELISRGLLRSGERVKNGRGQPSPRIELVNEAVYAIGVSINTDSAVVCVADLGCNVLEQVTLRTPPLSRNSTLDSLAKTIERMLQRNGIETDRVIGMGFAIAGFFLENRQINAPEPLRDWSLIDLQPVLEERFGMPVWLENNATTAAIGESLVGVGAWASNFIYLSFNFGFGAGVVINGKPYFGSHGNAGEITLYNDEESINRPALRYLLEELHQKGVQVDSIEDLRLRFDPNWPGVDTWLKRIQPTLDRLVNALAGLFDPQAVVFGGQLPAELGKRLIAATTFWGTHRYNSPPPRPRLLLSETNGDAAAIGAALVPLKERFFV”, the “soluble on expression in E. coli” value was “not soluble”.

As for “MIKIYNGDKLTRQPFFIKLINYLQIHDDVTLRQIKRNFADTEHLERSIEDYVQAGYVLRENKHYYNAFELLENLDGLTLDSQIFVDDQSSIYQDLLALTFETYLSNQTNAALIIEKTDISRDALTLSNYFFKLNENFPLSRKQKPLYHLLGDVNPNYALKYMTTFLLKFWGKDVVKQKRPDIFVQALVLLGYLEQVGKQSYCLKMTFDKEKLIFAS”, the “soluble on expression in E. coli” value is recorded as “not soluble”.
